# From patent US7115722
# Values joined by “and” are separate entries in the source; they are usually repeats but may differ in a detail not shown here. Identical values can stand only once.
# B1: H11-scFv (scFv)
# scFv: DIVLTQSPGTLSLSPGERATLSCRASQSVSSSYLAWYQQKPGQAPRLLIYGASTRATGMPDRFSGSGSGTDFTLTISRLEPEDFAVYYCQQYGSSPQTPQITFGGGTKVEIKRTVAAPSVSGGGGSGGGGSGGGGSQVQLVESGGGVVQPGRSLRLSCAASGFPFRSFAMHWVRQALGKGLEWVAVISYDGSTKYYADSVKGRFTISRDTSKNTVYLKMNSLRTEDTAVYYCARDQSLLGDYDHYYGLDVWGKGTTVTVSSGSEQKLISEEDLNHHHHH
# B2: recombinantly produced H11 IgG1 (antibody)
# VH: QAIVTLNTQAMHPTRWELSHMVDLQAAALVISSFITEHRGLTMEFGLSWVFLVALLRGIQCQVQLVESGGGVVQPGRSLRLSCAASGFPFRSFAMHWVRQALGKGLEWVAVISYDGSTKYYADSVKGRFTISRDTSKNTVYLKMNRLRTEDTAVFYLCERQSLLGDYDHYYGLDAWGKG
# VL: LEMDMEFQAQLLFLLLLWLPDITGDIVLTQSPGTLSLSPGERATLSCRASQSVSSSYLAWYQQKPGQAPRLLIYGASTRATGMPDRFSGSGSGTDFTLTISRLEPEDFAVYYCQQYGSSPQTPQITFGGGTKVEIKRTVAAPSVFIFPPS
# Columns and labels:
# C-antigen (human) [1] = assay: flow cytometry, SK-BR-3 cells, 5 mg/L
# C-antigen (human) [2] = assay: radioligand binding to SKMG1 cells
# C-antigen (human) [3] = assay: cell-fixed ELISA, SAOS-2 cells, 2.5 µg/mL
# C-antigen (human) [4] = assay: flow cytometry, live HT-29 cells, 200 µg/mL
# C-antigen (human) [5] = assay: flow cytometry, live A-375 cells, 200 µg/mL
# C-antigen (human) [6] = assay: cell-fixed ELISA, PC-3 cells, 2.5 µg/mL
# C-antigen (human) [7] = assay: flow cytometry, live LS-174T cells, 200 µg/mL
# C-antigen (human) [8] = assay: cell-fixed ELISA, SK-N-MC cells, 2.5 µg/mL
# C-antigen (human) [9] = assay: cell-fixed ELISA, D-54MG cells, 2.5 µg/mL
# C-antigen (human) [10] = assay: cell-fixed ELISA, A-375 cells, 2.5 µg/mL
# C-antigen (human) [11] = assay: radioligand binding to LS174T cells
# C-antigen (human) [12] = assay: cell-fixed ELISA, A-427 cells, 2.5 µg/mL
# C-antigen (human) [13] = assay: cell-fixed ELISA, SK-LU-1 cells, 2.5 µg/mL
# C-antigen (human) [14] = assay: cell-fixed ELISA, U-2 OS cells, 2.5 µg/mL
# C-antigen (human) [15] = assay: flow cytometry, live SK-BR-3 cells, 200 µg/mL
# C-antigen (human) [16] = assay: cell-fixed ELISA, U-118MG cells, 2.5 µg/mL
# C-antigen (human) [17] = assay: flow cytometry, live SKMG-1 cells, 100 µg/mL
# C-antigen (human) [18] = assay: flow cytometry, live H9 cells, 200 µg/mL
# C-antigen (human) [19] = assay: cell-fixed ELISA, RAMOS cells, 2.5 µg/mL
# C-antigen (human) [20] = assay: cell-fixed ELISA, BT-474 cells, 2.5 µg/mL
# C-antigen (human) [21] = assay: cell-fixed ELISA, CEM cells, 2.5 µg/mL
# C-antigen (human) [22] = assay: flow cytometry, live H9 cells, 100 µg/mL
# C-antigen (human) [23] = assay: cell-fixed ELISA, SK-Co-1 cells, 2.5 µg/mL
# C-antigen (human) [24] = assay: cell-fixed ELISA, K-562 cells, 2.5 µg/mL
# C-antigen (human) [25] = assay: cell-fixed ELISA, SK-MEL-28 cells, 2.5 µg/mL
# C-antigen (human) [26] = assay: cell-fixed ELISA, LS17T cells, 2.5 µg/mL
# C-antigen (human) [27] = assay: flow cytometry, live RAMOS cells, 200 µg/mL
# C-antigen (human) [28] = assay: cell-fixed ELISA, DAUDI cells, 2.5 µg/mL
# C-antigen (human) [29] = assay: radioligand binding to A-375 cells
# C-antigen (human) [30] = assay: cell-fixed ELISA, HT-29 cells, 2.5 µg/mL
# C-antigen (human) [31] = assay: flow cytometry, live CA-46 cells, 100 µg/mL
# C-antigen (human) [32] = assay: flow cytometry, live RAMOS cells, 100 µg/mL
# C-antigen (human) [33] = assay: cell-fixed ELISA, MB-468 cells, 2.5 µg/mL
# C-antigen (human) [34] = assay: cell-fixed ELISA, SW-9000 cells, 2.5 µg/mL
# C-antigen (human) [35] = assay: cell-fixed ELISA, tumour cell lines, against BGA scFv
# C-antigen (human) [36] = assay: cell-fixed ELISA, NCI-H82 cells, 2.5 µg/mL
# C-antigen (human) [37] = assay: flow cytometry, live H9 cells, 100 µg/mL; remark: listed apart in the source
# C-antigen (human) [38] = assay: cell-fixed ELISA, SK-MEL-5 cells, 2.5 µg/mL
# C-antigen (human) [39] = assay: cell-fixed ELISA, DU-145 cells, 2.5 µg/mL
# C-antigen (human) [40] = assay: cell-fixed ELISA, SKMG-1 cells, 2.5 µg/mL
# C-antigen (human) [41] = assay: cell-fixed ELISA, CA-46 cells, 2.5 µg/mL
# C-antigen (human) [42] = assay: cell-fixed ELISA, BT-20 cells, 2.5 µg/mL
# C-antigen (human) [43] = assay: flow cytometry, live CCRF-CEM cells, 100 µg/mL
# C-antigen (human) [44] = assay: flow cytometry, live SKMG-1 cells, 100 µg/mL (second row)
# C-antigen (human) [45] = assay: flow cytometry, live MB-468 cells, 200 µg/mL
# C-antigen (human) [46] = assay: cell-fixed ELISA, HEP-2 cells, 2.5 µg/mL
# C-antigen (human) [47] = assay: cell-fixed ELISA, T-24 cells, 2.5 µg/mL
# C-antigen (human) [48] = assay: cell-fixed ELISA, SK-BR-3 cells, 2.5 µg/mL
# C-antigen (human) [49] = assay: cell-fixed ELISA, T47D cells, 2.5 µg/mL
# C-antigen (human) [50] = assay: flow cytometry, live CA-46 cells, 200 µg/mL
# C-antigen (human) [51] = assay: cell-fixed ELISA, NCI-69 cells, 2.5 µg/mL
# C-antigen (human) [52] = assay: flow cytometry, live CCRF-CEM cells, 200 µg/mL
# C-antigen (human) [53] = assay: cell-fixed ELISA, SK-OV-3 cells, 2.5 µg/mL
# C-antigen (human) [54] = assay: flow cytometry, live WI-38 human diploid lung cells, 100 µg/mL
# C-antigen (human) [55] = assay: flow cytometry, SK-BR-3 cells, 3.3 mg/L IgG1
# C-antigen (human) [56] = assay: flow cytometry, SK-BR-3 cells, 2 mg/L IgG1
# C-antigen (human) [57] = assay: flow cytometry, SK-BR-3 cells, 3.9 mg/L IgG1
# C-antigen (human) [58] = assay: flow cytometry, SK-BR-3 cells, 4.0 mg/L IgG1
molecule,measurement,setting,value
Control IgG1 (antibody),Mean Fluorescence (MF),C-antigen (human) [1],169
B1,Ka,C-antigen (human) [2],1.4e+09 M⁻¹
same,binding sites/cell (binding sites/cell),C-antigen (human) [2],5000
same,O.D. at 450 nm,C-antigen (human) [3],0.88 O.D.
same,% Positive Cells,C-antigen (human) [4],18%
same,Mean Fluorescence,C-antigen (human) [4],179
same,% Positive Cells,C-antigen (human) [5],80% and 76%
same,Mean Fluorescence,C-antigen (human) [5],207 and 235
same,O.D. at 450 nm,C-antigen (human) [6],0.36 O.D.
same,% Positive Cells,C-antigen (human) [7],37%
same,Mean Fluorescence,C-antigen (human) [7],233
same,O.D. at 450 nm,C-antigen (human) [8],0.5 O.D.
same,O.D. at 450 nm,C-antigen (human) [9],0.5 O.D.
same,O.D. at 450 nm,C-antigen (human) [10],0.97 O.D.
same,Ka,C-antigen (human) [11],3e+08 M⁻¹
same,O.D. at 450 nm,C-antigen (human) [12],0.4 O.D.
same,O.D. at 450 nm,C-antigen (human) [13],0.45 O.D.
same,O.D. at 450 nm,C-antigen (human) [14],0.93 O.D.
same,% Positive Cells,C-antigen (human) [15],36%
same,Mean Fluorescence,C-antigen (human) [15],233
same,O.D. at 450 nm,C-antigen (human) [16],0.47 O.D.
same,% Positive Cells,C-antigen (human) [17],31%
same,Mean Fluorescence,C-antigen (human) [17],206
same,% FLUORESCENCE […],C-antigen (human) [18],20%
same,% Positive Cells,C-antigen (human) [18],13%
same,Mean Fluorescence,C-antigen (human) [18],186
same,O.D. at 450 nm,C-antigen (human) [19],1.3 O.D.
same,O.D. at 450 nm,C-antigen (human) [20],0.6 O.D.
same,O.D. at 450 nm,C-antigen (human) [21],1.4 O.D.
same,% Positive Cells,C-antigen (human) [22],13%
same,Mean Fluorescence,C-antigen (human) [22],145
same,O.D. at 450 nm,C-antigen (human) [23],0.56 O.D.
same,O.D. at 450 nm,C-antigen (human) [24],0.65 O.D.
same,O.D. at 450 nm,C-antigen (human) [25],0.71 O.D.
same,O.D. at 450 nm,C-antigen (human) [26],0.57 O.D.
same,% FLUORESCENCE […],C-antigen (human) [27],143%
same,% Positive Cells,C-antigen (human) [27],95%
same,Mean Fluorescence,C-antigen (human) [27],423
same,O.D. at 450 nm,C-antigen (human) [28],1.38 O.D.
same,Ka,C-antigen (human) [29],3.6e+08 M⁻¹
same,binding sites/cell (binding sites/cell),C-antigen (human) [29],24000
same,O.D. at 450 nm,C-antigen (human) [30],0.53 O.D.
same,% FLUORESCENCE […],C-antigen (human) [31],66%
same,% Positive Cells,C-antigen (human) [31],58%
same,Mean Fluorescence,C-antigen (human) [31],221
same,% FLUORESCENCE […],C-antigen (human) [32],87%
same,% Positive Cells,C-antigen (human) [32],67%
same,Mean Fluorescence,C-antigen (human) [32],316
same,O.D. at 450 nm,C-antigen (human) [33],0.65 O.D.
same,O.D. at 450 nm,C-antigen (human) [34],0.41 O.D.
same,affinity relative to control scFv,C-antigen (human) [35],8 to 50 fold
same,O.D. at 450 nm,C-antigen (human) [36],0.44 O.D.
same,% FLUORESCENCE […],C-antigen (human) [37],15%
same,% Positive Cells,C-antigen (human) [37],9%
same,Mean Fluorescence,C-antigen (human) [37],171
same,O.D. at 450 nm,C-antigen (human) [38],0.61 O.D.
same,O.D. at 450 nm,C-antigen (human) [39],0.42 O.D.
same,O.D. at 450 nm,C-antigen (human) [40],0.56 O.D.
same,O.D. at 450 nm,C-antigen (human) [41],1.2 O.D.
same,O.D. at 450 nm,C-antigen (human) [42],0.54 O.D.
same,% FLUORESCENCE […],C-antigen (human) [43],52%
same,% Positive Cells,C-antigen (human) [43],38%
same,Mean Fluorescence,C-antigen (human) [43],242
same,% Positive Cells,C-antigen (human) [44],27%
same,Mean Fluorescence,C-antigen (human) [44],224
same,% Positive Cells,C-antigen (human) [45],11%
same,Mean Fluorescence,C-antigen (human) [45],156
same,O.D. at 450 nm,C-antigen (human) [46],0.08 O.D.
same,O.D. at 450 nm,C-antigen (human) [47],0.97 O.D.
same,O.D. at 450 nm,C-antigen (human) [48],0.58 O.D.
same,O.D. at 450 nm,C-antigen (human) [49],0.64 O.D.
same,% FLUORESCENCE […],C-antigen (human) [50],108%
same,% Positive Cells,C-antigen (human) [50],76%
same,Mean Fluorescence,C-antigen (human) [50],262
same,O.D. at 450 nm,C-antigen (human) [51],0.44 O.D.
same,% FLUORESCENCE […],C-antigen (human) [52],35%
same,% Positive Cells,C-antigen (human) [52],34%
same,Mean Fluorescence,C-antigen (human) [52],231
same,O.D. at 450 nm,C-antigen (human) [53],0.77 O.D.
same,% Positive Cells,C-antigen (human) [54],15%
same,Mean Fluorescence,C-antigen (human) [54],255
B2,% Increase of MF above IgG1 control,C-antigen (human) [55],14% and 10%
same,Mean Fluorescence (MF),C-antigen (human) [55],192 and 186
same,% Increase of MF above IgG1 control,C-antigen (human) [56],2% and 9%
same,Mean Fluorescence (MF),C-antigen (human) [56],172 and 184
same,% Increase of MF above IgG1 control,C-antigen (human) [57],18%
same,Mean Fluorescence (MF),C-antigen (human) [57],200
same,% Increase of MF above IgG1 control,C-antigen (human) [58],33%
same,Mean Fluorescence (MF),C-antigen (human) [58],224
